Test results reported in article PMC7149228.

Biological target: Polyubiquitinated model substrate (lac repressor degron-sfGFP) bearing long ubiquitin chains (E. coli | not stated) (UniProt P0CG48)
Experiment: MST

Kd: 100 µM
Substance: Ddi1 construct containing the HDD and RVP domains (D220N) (domain or fragment)
